Laboratory results from patent publication US20170291939A1 (Novartis, published 2017).
Where a chain is given by its changes, count along the chain named.

T1: human IL-17A (construct not specified) (human, UniProt Q16552 24-155, limits assumed)
T1 construct: also called huIL-17A
T1 sequence: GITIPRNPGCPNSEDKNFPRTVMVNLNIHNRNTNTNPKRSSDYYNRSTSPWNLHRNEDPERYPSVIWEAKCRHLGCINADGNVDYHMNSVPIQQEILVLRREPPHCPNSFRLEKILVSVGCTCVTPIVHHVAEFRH

B1: MB454 (Fab, V domains shown)
VH: EVQLVESGGDLVQPGGSLRLSCAASGFTFSSYWMSWVRQAPGKGLEWVANIKQDGSEKYYVDSVKGRFTISRDNAKNSLYLQMNSLRAEDTAVYYCARDRGSLYYWGQGTLVTVSS
VL: AIQLTQSPSSLSASVGDRVTITCRPSQGILWALAWYQQKPGKAPKLLIYDASSLENGVPSRFSGSGSGTDFTLTISSLQPEDFATYYCQQFNSYPLTFGGGTKVEIK
notes: Fab variant of XAB1
B2: MB456 (Fab, V domains shown)
VH: B1 VH
VL: B1 VL with A32H
notes: Fab variant of XAB1
B3: MB440 (Fab, V domains shown)
VH: B1 VH
VL: B1 VL with A32Q
notes: Fab variant of XAB1
B4: MB486 (Fab, V domains shown)
VH: B1 VH
VL: B1 VL with L30W, A32M
notes: Fab variant of XAB1
B5: MB450 (Fab, V domains shown)
VH: B1 VH
VL: B1 VL with L30M, A32W
notes: Fab variant of XAB1
B6: MB447 (Fab, V domains shown)
VH: B1 VH
VL: B1 VL with L30F, A32W
notes: Fab variant of XAB1
B7: MB458 (Fab, V domains shown)
VH: B1 VH
VL: B1 VL with L30W, W31Y, A32Q
notes: Fab variant of XAB1
B8: MB464 (Fab, V domains shown)
VH: B1 VH
VL: B1 VL with L30I, W31Y, A32Q
notes: Fab variant of XAB1
B9: MB461 (Fab, V domains shown)
VH: B1 VH
VL: B1 VL with L30Y, A32T
notes: Fab variant of XAB1
B10: MB435 (Fab, V domains shown)
VH: B1 VH
VL: B1 VL with L30N, A32E
B11: MB453 (Fab, V domains shown)
VH: B1 VH
VL: B1 VL with L30V, W31F, A32W
notes: Fab variant of XAB1
B12: MB432 (Fab, V domains shown)
VH: B1 VH
VL: B1 VL with W31F
notes: Fab variant of XAB1
B13: MB448 (Fab, V domains shown)
VH: B1 VH
VL: B1 VL with L30V, A32M
notes: Fab variant of XAB1
B14: MB457 (Fab, V domains shown)
VH: B1 VH
VL: B1 VL with L30I, A32S
notes: Fab variant of XAB1
B15: MB463 (Fab, V domains shown)
VH: B1 VH
VL: B1 VL with L30Y, W31F, A32E
notes: Fab variant of XAB1
B16: MB468 (Fab, V domains shown)
VH: B1 VH
VL: B1 VL with L30Y, A32E
notes: Fab variant of XAB1
B17: MB434 (Fab, V domains shown)
VH: B1 VH
VL: B1 VL with L30W, A32Y
notes: Fab variant of XAB1
B18: MB433 (Fab, V domains shown)
VH: B1 VH
VL: B1 VL with L30Y, A32G
notes: Fab variant of XAB1
B19: MB491 (Fab, V domains shown)
VH: B1 VH
VL: B1 VL with L30F, W31F, A32W
notes: Fab variant of XAB1
B20: MB483 (Fab, V domains shown)
VH: B1 VH
VL: B1 VL with L30F, A32T
notes: Fab variant of XAB1
B21: MB438 (Fab, V domains shown)
VH: B1 VH
VL: B1 VL with L30P, W31Y
notes: Fab variant of XAB1
B22: MB444 (Fab, V domains shown)
VH: B1 VH
VL: B1 VL with A32E
notes: Fab variant of XAB1

Tests used:
[1] = target: T1, human IL-17A (construct not specified); assay: ELISA, coated huIL-17A, crude Fab extract
[2] = target: T1, human IL-17A (construct not specified); assay: ELISA, coated huIL-17A, long wash
[3] = target: T1, human IL-17A (construct not specified); assay: ELISA, coated huIL-17A, then 200 nM XAB1 Fab as competitor

| Binder | Classic ELISA (normalized to XAB1 Fab) [1] | Off-rate ELISA (normalized to XAB1 Fab) [2] | Competition ELISA (normalized to XAB1 Fab) [3] |
| --- | --- | --- | --- |
| B1 | 2.9 fold | 34.2 fold | 36.6 fold |
| B2 | 2.4 fold | 45.1 fold | 46.7 fold |
| B3 | 2.8 fold | 52.5 fold | 54 fold |
| B4 | 1.9 fold | 58.5 fold | 64.9 fold |
| B5 | 2.9 fold | 41.5 fold | 53.3 fold |
| B6 | 3 fold | 45.5 fold | 57 fold |
| B7 | 2.7 fold | 33 fold | 42.1 fold |
| B8 | 2.7 fold | 34.9 fold | 36.9 fold |
| B9 | 2.9 fold | 49.8 fold | 62.8 fold |
| B10 | 2.7 fold | 44.7 fold | 44.6 fold |
| B11 | 2.7 fold | 43.3 fold | 46.4 fold |
| B12 | 2.3 fold | 44.2 fold | 37.3 fold |
| B13 | 2.9 fold | 40.4 fold | 51.5 fold |
| B14 | 2.7 fold | 34.7 fold | 41 fold |
| B15 | 2.7 fold | 34.2 fold | 31.6 fold |
| B16 | 2.8 fold | 43.9 fold | 60 fold |
| B17 | 2.4 fold | 44.4 fold | 39.5 fold |
| B18 | 2.3 fold | 39.7 fold | 29.3 fold |
| B19 | 2.1 fold | 43 fold | 44.2 fold |
| B20 | 3.1 fold | 47.1 fold | 45.2 fold |
| B21 | 2.7 fold | 41.5 fold | 41.1 fold |
| B22 | 3.2 fold | 48.9 fold | 52.4 fold |
